The supplement of paper PMC10567573
± gives the standard deviation.

Experiment: protein stability index of a GFP-peptide fusion (GPS, HEK-293T) (PSI 1-6); higher = more stable
[1] = treatment: DMSO, c terminus: a fixed tail appended
[2] = treatment: MLN4924 1 uM, 8 h, c terminus: a fixed tail appended
[3] = treatment: DMSO, c terminus: native
[4] = treatment: MLN4924 1 uM, 8 h, c terminus: native
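Further: 24-mer peptide tiles fused after GFP, lentivirally expressed, FACS-sorted into six equal bins by GFP/DsRed ratio, decoded by Illumina sequencing, PSI is the read-weighted mean bin number.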

Sequence: DGKPFPELVLEQQLDREAQARHQL [PCDHGC5]
- protein stability index [1]: 4.92 ± 0.33
- protein stability index [2]: 5.04 ± 0.27

Sequence: SDTRVGAPATGSGTPGPFTKEGGM [CHIT1]
- protein stability index [1]: 4.76 ± 0.26
- protein stability index [2]: 4.98 ± 0.14

Sequence: MPCLLMELRRDSSESQLASTESDK [C18orf25]
- protein stability index [1]: 4.73 ± 0.05
- protein stability index [2]: 4.55 ± 0.22

Sequence: DQDYLHSLGKARTAQVQKDARIGE [FLOT1]
- protein stability index [1]: 4.86 ± 0.16
- protein stability index [2]: 4.74 ± 0.19

Sequence: GPRDPQLVPILIEAARNGKMKFVI [NSDHL]
- protein stability index [1]: 2.11 ± 0.44
- protein stability index [2]: 2.38 ± 0.38

Sequence: DYSQLNESTTKESSEASQLEDAAG [FBXO34]
- protein stability index [1]: 5.47 ± 0.28
- protein stability index [2]: 5.35 ± 0.46

Sequence: TQKLEEIKENAQDTMRQINKKGFW [TOR1AIP2]
- protein stability index [1]: 3.61 ± 0.16
- protein stability index [2]: 4.08 ± 0.36

Sequence: LGPGALHFDLRDDDDAEEEGPKRE [TCF25]
- protein stability index [1]: 5.17 ± 0.29
- protein stability index [2]: 5.54 ± 0.13

Sequence: HAGTVYGGVMYISGGITHDTFQKE [KLHL13]
- protein stability index [1]: 2.32 ± 0.24
- protein stability index [2]: 2.31 ± 0.22

Sequence: PDGKEMAEEYDEKTSELLVRKWRV [DPCD]
- protein stability index [1]: 4.31 ± 0.23
- protein stability index [2]: 4.41 ± 0.11

Sequence: SSKAHTSRFISANLPCNKFKNRLV [PTPRD]
- protein stability index [1]: 2.58 ± 0.35
- protein stability index [2]: 2.59 ± 0.26

Sequence: LQEQHLSSPQGVQLDIASQSLDQE [BCL2L13]
- protein stability index [1]: 5.38 ± 0.28
- protein stability index [2]: 5.56 ± 0.21

Sequence: EQRTIQAQKESLQNQHHSASLQAS [APBB1IP]
- protein stability index [1]: 5.16 ± 0.19
- protein stability index [2]: 4.99 ± 0.18

Sequence: KAILEQNFRDLVRDLEKQKEEVRA [TRIM29]
- protein stability index [1]: 4.43 ± 0.31
- protein stability index [2]: 4.48 ± 0.24

Sequence: LNAEAGHLDPGFLASDKTSAGNAP [C18orf25]
- protein stability index [1]: 5.07 ± 0.14
- protein stability index [2]: 4.98 ± 0.14

Sequence: LSLIARFSPIAIDGMSGLAGVGLS [ELAVL3]
- protein stability index [1]: 2.7 ± 0.73
- protein stability index [2]: 2.48 ± 0.42

Sequence: ELKLEQQEAAERESKLLRDLSAAN [LRRC45]
- protein stability index [1]: 4.62 ± 0.18
- protein stability index [2]: 4.77 ± 0.23

Sequence: SFLWQRGRKFLQKHLNASNPTEPA [TOR1AIP2]
- protein stability index [1]: 2.86 ± 0.13
- protein stability index [2]: 3.05 ± 0.17

Sequence: FKTYISPWERAMGVDPQQKMELGI [MYOZ1]
- protein stability index [1]: 2.42 ± 0.25
- protein stability index [2]: 2.31 ± 0.38

Sequence: KHLTARVLCLIVLPLALYTATFAV [POMT2]
- protein stability index [1]: 3.38 ± 0.42
- protein stability index [2]: 3.15 ± 0.58

Sequence: TDRKLDDGDDKVFRRAPSWRKRFR [PPFIA4]
- protein stability index [1]: 4.38 ± 0.082
- protein stability index [2]: 4.51 ± 0.47

Sequence: SAAGHLKVVQSLLNHGASVNNTTL [FEM1C]
- protein stability index [1]: 3.06 ± 0.21
- protein stability index [2]: 3.13 ± 0.38

Sequence: NVVPIHVPPTTENKPKVQCCQNI [RAB11A]
- protein stability index [3]: 4.13 ± 0.19
- protein stability index [4]: 4.12 ± 0.11

Sequence: GLALCPEVQDLLEGCELPDLPSSL [SMG5]
- protein stability index [1]: 4.05 ± 0.25
- protein stability index [2]: 3.96 ± 0.25

Sequence: MSELFLHTPSDTGVSFQAISSMAD [PKD2L1]
- protein stability index [1]: 3.41 ± 0.15
- protein stability index [2]: 3.61 ± 0.27

Sequence: FNKGIYDIHVGLRGVPLLEWETEV [CLCN6]
- protein stability index [1]: 2.13 ± 0.32
- protein stability index [2]: 2.17 ± 0.44

Sequence: PIPHVFSAGTGSAILPHFHHAFR [PLAGL1]
- protein stability index [3]: 3.04 ± 0.22
- protein stability index [4]: 3.17 ± 0.16

Sequence: TSRWSSMEIMEAYSVARQFNLTPP [KCNAB2]
- protein stability index [1]: 2.57 ± 0.22
- protein stability index [2]: 2.84 ± 0.084

Sequence: SPREGEELKPEDKDPRDPEESKEP [GNAS]
- protein stability index [1]: 5.78 ± 0.14
- protein stability index [2]: 5.71 ± 0.26

Sequence: MGSQGSPVKSYDYLLKFLLVGDSD [RAB40C]
- protein stability index [1]: 2.29 ± 0.28
- protein stability index [2]: 2.37 ± 0.099

Sequence: LVQLEDEITTLRQVLSAKERHLVE [TPD52L1]
- protein stability index [1]: 2.85 ± 0.16
- protein stability index [2]: 3.04 ± 0.44

Sequence: KVGKLAATAVGGGFFLLQLANHTG [FUNDC2]
- protein stability index [1]: 2.38 ± 0.59
- protein stability index [2]: 2.46 ± 0.87

Sequence: YDWLFFSPDKDSIMNIEPAILVMH [INTS3]
- protein stability index [1]: 2.61 ± 0.52
- protein stability index [2]: 2.16 ± 0.21

Sequence: SPHEMLQAVVLCSKKTFQITKQGD [USP39]
- protein stability index [1]: 3.34 ± 0.39
- protein stability index [2]: 3.4 ± 0.28

Sequence: SPISSISPGLHSFTDHQRLMKRRK [KCNK9]
- protein stability index [1]: 4.7 ± 0.28
- protein stability index [2]: 4.8 ± 0.16

Sequence: GATLGQTTSEEAVGGATLAQTTSE [HDAC6]
- protein stability index [1]: 5.37 ± 0.34
- protein stability index [2]: 5.63 ± 0.31

Sequence: WNHIRLQRTAKGKPVLAKDSSNPY [AASDHPPT]
- protein stability index [1]: 2.9 ± 0.39
- protein stability index [2]: 3.19 ± 0.3

Sequence: RVERRFHFSQSLTVIHDFLFSLKE [FAF2]
- protein stability index [1]: 2.17 ± 0.15
- protein stability index [2]: 2.44 ± 0.23

Sequence: LQPEQQLNIYKTLKTHLIEKGILQ [CDS1]
- protein stability index [1]: 2.42 ± 0.14
- protein stability index [2]: 2.58 ± 0.4

Sequence: VTFREENTIAFRHLFLLGYSDGAD [MCOLN1]
- protein stability index [1]: 2.38 ± 0.2
- protein stability index [2]: 2.2 ± 0.11

Sequence: GYYSEKLEAIQLDGEILFSLLQKV [TBC1D10A]
- protein stability index [1]: 2.44 ± 0.59
- protein stability index [2]: 2.53 ± 0.32

Sequence: QAQQGRSSLVWLFSQLYLYSFISL [MCOLN1]
- protein stability index [1]: 2.86 ± 0.46
- protein stability index [2]: 3.09 ± 0.25

Sequence: HGASAPSVSREARQTVPPLTVRLH [PWWP2B]
- protein stability index [1]: 3.76 ± 0.48
- protein stability index [2]: 3.73 ± 0.12

Sequence: DPLNICVFILLLVFIVVKCFTSE [RTP4]
- protein stability index [3]: 2.93 ± 0.24
- protein stability index [4]: 2.89 ± 0.098

Sequence: MADKAKPAKAANRTPPKSPGDPSK [TPPP]
- protein stability index [1]: 5.22 ± 0.25
- protein stability index [2]: 5.39 ± 0.15

Sequence: KRFVAMKVVKSAQHYTETALDEIK [SRPK2]
- protein stability index [1]: 2.97 ± 0.51
- protein stability index [2]: 2.92 ± 0.38

Sequence: PRGYFHTFAGDTCQVALNFANEEE [WASL]
- protein stability index [1]: 4.43 ± 0.27
- protein stability index [2]: 4.34 ± 0.12

Sequence: RVEFPRSGRGTGRGGGGGGGGGAP [SRSF1]
- protein stability index [1]: 4.7 ± 0.39
- protein stability index [2]: 4.8 ± 0.28

Sequence: KQNGRVAKVKGHRSQKHKERIRLL [C18orf25]
- protein stability index [1]: 3.9 ± 0.28
- protein stability index [2]: 3.97 ± 0.29

Sequence: SDINSLRRILDELTLCRSDLEAQM [KRT33B]
- protein stability index [1]: 2.85 ± 0.36
- protein stability index [2]: 2.92 ± 0.38

Sequence: SLEDLIFESLPENASHKLEVRLVP [ATE1]
- protein stability index [1]: 2.79 ± 0.3
- protein stability index [2]: 2.98 ± 0.3

Sequence: SEGLVGALMHVMQKRSRAIHSSDE [WAS]
- protein stability index [1]: 3.67 ± 0.3
- protein stability index [2]: 3.79 ± 0.15

Sequence: PGAYYPYERTLGQYQYERYGAVEL [IRX6]
- protein stability index [1]: 2.3 ± 0.33
- protein stability index [2]: 2.41 ± 0.21

Sequence: LRPRPASSISLPIGHLGCISLLS [DMRTC1]
- protein stability index [3]: 2.47 ± 0.41
- protein stability index [4]: 2.43 ± 0.33

Sequence: MGSLSSRVLRQPRPALAQQAQGAR [GMCL1]
- protein stability index [1]: 4.46 ± 0.28
- protein stability index [2]: 4.56 ± 0.18

Sequence: IIANTMAFQNDVYEWARDHRAHHK [SCD]
- protein stability index [1]: 2.52 ± 0.17
- protein stability index [2]: 2.86 ± 0.27

Sequence: SSRQTRPILKEQSSSSFSQGQSS [KRT16]
- protein stability index [3]: 5.3 ± 0.29
- protein stability index [4]: 5.33 ± 0.25

Sequence: SSLPGHAAKTLPGGAGKGRTPSAF [EHMT1]
- protein stability index [1]: 3.98 ± 0.34
- protein stability index [2]: 4.26 ± 0.32

Sequence: NNWPPLPSFCPVQPCFFQDISMEI [SCAMP3]
- protein stability index [1]: 2.4 ± 0.53
- protein stability index [2]: 2.55 ± 0.5

Sequence: HLANHDDLISKSFQGSQGRAYLFN [YPEL3]
- protein stability index [1]: 2.8 ± 0.075
- protein stability index [2]: 3.03 ± 0.24

Sequence: QMMSATAQNREPESVEQLESRIVE [SNX8]
- protein stability index [1]: 5.37 ± 0.17
- protein stability index [2]: 5.56 ± 0.24

Sequence: PGSTRPHRSACSSAAVRGHPRALP [HAGHL]
- protein stability index [1]: 3.19 ± 0.23
- protein stability index [2]: 3.15 ± 0.24

Sequence: NKTLLRLRLRKERVSDVQKVLQGG [PKD2L1]
- protein stability index [1]: 2.65 ± 0.23
- protein stability index [2]: 2.94 ± 0.35

Sequence: YVYKAASEGKVLTLAALLLNRSES [FEM1B]
- protein stability index [1]: 2.78 ± 0.69
- protein stability index [2]: 2.62 ± 0.56

Sequence: PNDEVHPLLGVKGDGKSKKKQAGR [RBBP5]
- protein stability index [1]: 5.35 ± 0.27
- protein stability index [2]: 5.2 ± 0.35
